B1: Coronatine-insensitive protein 1 (Arabidopsis thaliana (Mouse-ear cress)), O04197 (parent)
chain: MEDPDIKRCKLSCVATVDDVIEQVMTYITDPKDRDSASLVCRRWFKIDSETREHVTMALCYTATPDRLSRRFPNLRSLKLKGKPRAAMFNLIPENWGGYVTPWVTEISNNLRQLKSVHFRRMIVSDLDLDRLAKARADDLETLKLDKCSGFTTDGLLSIVTHCRKIKTLLMEESSFSEKDGKWLHELAQHNTSLEVLNFYMTEFAKISPKDLETIARNCRSLVSVKVGDFEILELVGFFKAAANLEEFCGGSLNEDIGMPEKYMNLVFPRKLCRLGLSYMGPNEMPILFPFAAQIRKLDLLYALLETEDHCTLIQKCPNLEVLETRNVIGDRGLEVLAQYCKQLKRLRIERGADEQGMEDEEGLVSQRGLIALAQGCQELEYMAVYVSDITNESLESIGTYLKNLCDFRLVLLDREERITDLPLDNGVRSLLIGCKKLRRFAFYLRQGGLTDLGLSYIGQYSPNVRWMLLGYVGESDEGLMEFSRGCPNLQKLEMRGCCFSERAIAAAVTKLPSLRYLWVQGYRASMTGQDLMQMARPYWNIELIPSRRVPEVNQQGEIREMEHPAHILAYYSLAGQRTDCPTTVRVLKEPI
partner: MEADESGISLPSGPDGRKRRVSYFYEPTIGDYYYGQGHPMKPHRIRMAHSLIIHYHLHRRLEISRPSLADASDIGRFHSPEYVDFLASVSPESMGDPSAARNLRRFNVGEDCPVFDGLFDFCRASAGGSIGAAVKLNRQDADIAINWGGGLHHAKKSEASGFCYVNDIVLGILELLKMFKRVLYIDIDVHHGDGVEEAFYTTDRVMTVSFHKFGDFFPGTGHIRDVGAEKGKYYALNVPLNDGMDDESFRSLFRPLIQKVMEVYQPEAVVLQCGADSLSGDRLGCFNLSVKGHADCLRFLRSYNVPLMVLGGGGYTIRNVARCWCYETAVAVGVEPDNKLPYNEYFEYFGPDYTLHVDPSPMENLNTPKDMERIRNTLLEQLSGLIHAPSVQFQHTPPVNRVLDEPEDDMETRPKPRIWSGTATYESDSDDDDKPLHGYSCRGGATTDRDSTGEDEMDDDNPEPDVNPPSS
B2: Coronatine-insensitive protein 1 (Arabidopsis thaliana (Mouse-ear cress)), O04197 (parent)
chain: B1 chain

Variants of: B1
Details: with hda6_arath HDA6, Q9FML2

Variant	effect of a mutation on the interaction
MEDPDIKRCKLSCVATVDDVIEQVMTYITDPKDRDSASLVCRRAFKIDSETREHVTMALCYTATPDRLSRRFPNLRSLKLKGKPRAAMFNLIPENWGGYVTPWVTEISNNLRQLKSVHFRRMIVSDLDLDRLAKARADDLETLKLDKCSGFTTDGLLSIVTHCRKIKTLLMEESSFSEKDGKWLHELAQHNTSLEVLNFYMTEFAKISPKDLETIARNCRSLVSVKVGDFEILELVGFFKAAANLEEFCGGSLNEDIGMPEKYMNLVFPRKLCRLGLSYMGPNEMPILFPFAAQIRKLDLLYALLETEDHCTLIQKCPNLEVLETRNVIGDRGLEVLAQYCKQLKRLRIERGADEQGMEDEEGLVSQRGLIALAQGCQELEYMAVYVSDITNESLESIGTYLKNLCDFRLVLLDREERITDLPLDNGVRSLLIGCKKLRRFAFYLRQGGLTDLGLSYIGQYSPNVRWMLLGYVGESDEGLMEFSRGCPNLQKLEMRGCCFSERAIAAAVTKLPSLRYLWVQGYRASMTGQDLMQMARPYWNIELIPSRRVPEVNQQGEIREMEHPAHILAYYSLAGQRTDCPTTVRVLKEPI [W44A]	decreasing interaction
MEDPDIKRCKLSCVATVDDVIEQVMTYITDPKDRDSASLVCRRWFKIDSETREHVTMALCYTATPDRLSRRFPNLRSLKLKGKPRAAMFNLIPENWGGYVTPWVTEISNNLRQLKSVHFRRMIVSDLDLDRLAKARADDLETLKLDKCSGFTTDGLLSIVTHCRKIKTLLMEESSFSEKDGKWLHELAQHNTSLEVLNFYMTEFAKISPKDLETIARNCRSLVSVKVGDFEILELVGFFKAAANFEEFCGGSLNEDIGMPEKYMNLVFPRKLCRLGLSYMGPNEMPILFPFAAQIRKLDLLYALLETEDHCTLIQKCPNLEVLETRNVIGDRGLEVLAQYCKQLKRLRIERGADEQGMEDEEGLVSQRGLIALAQGCQELEYMAVYVSDITNESLESIGTYLKNLCDFRLVLLDREERITDLPLDNGVRSLLIGCKKLRRFAFYLRQGGLTDLGLSYIGQYSPNVRWMLLGYVGESDEGLMEFSRGCPNLQKLEMRGCCFSERAIAAAVTKLPSLRYLWVQGYRASMTGQDLMQMARPYWNIELIPSRRVPEVNQQGEIREMEHPAHILAYYSLAGQRTDCPTTVRVLKEPI [L245F]	decreasing interaction

Variants of: B2
Details: with skp1a_arath SKP1A

Variant	effect of a mutation on the interaction
MEDPDIKRCKLSCVATVDDVIEQVMTYITDPKDRDSASLVCRRAFKIDSETREHVTMALCYTATPDRLSRRFPNLRSLKLKGKPRAAMFNLIPENWGGYVTPWVTEISNNLRQLKSVHFRRMIVSDLDLDRLAKARADDLETLKLDKCSGFTTDGLLSIVTHCRKIKTLLMEESSFSEKDGKWLHELAQHNTSLEVLNFYMTEFAKISPKDLETIARNCRSLVSVKVGDFEILELVGFFKAAANLEEFCGGSLNEDIGMPEKYMNLVFPRKLCRLGLSYMGPNEMPILFPFAAQIRKLDLLYALLETEDHCTLIQKCPNLEVLETRNVIGDRGLEVLAQYCKQLKRLRIERGADEQGMEDEEGLVSQRGLIALAQGCQELEYMAVYVSDITNESLESIGTYLKNLCDFRLVLLDREERITDLPLDNGVRSLLIGCKKLRRFAFYLRQGGLTDLGLSYIGQYSPNVRWMLLGYVGESDEGLMEFSRGCPNLQKLEMRGCCFSERAIAAAVTKLPSLRYLWVQGYRASMTGQDLMQMARPYWNIELIPSRRVPEVNQQGEIREMEHPAHILAYYSLAGQRTDCPTTVRVLKEPI [W44A]	decreasing interaction

Variants of: B2
Details: with skp1b_arath SKP1B

Variant	effect of a mutation on the interaction
MEDPDIKRCKLSCVATVDDVIEQVMTYITDPKDRDSASLVCRRAFKIDSETREHVTMALCYTATPDRLSRRFPNLRSLKLKGKPRAAMFNLIPENWGGYVTPWVTEISNNLRQLKSVHFRRMIVSDLDLDRLAKARADDLETLKLDKCSGFTTDGLLSIVTHCRKIKTLLMEESSFSEKDGKWLHELAQHNTSLEVLNFYMTEFAKISPKDLETIARNCRSLVSVKVGDFEILELVGFFKAAANLEEFCGGSLNEDIGMPEKYMNLVFPRKLCRLGLSYMGPNEMPILFPFAAQIRKLDLLYALLETEDHCTLIQKCPNLEVLETRNVIGDRGLEVLAQYCKQLKRLRIERGADEQGMEDEEGLVSQRGLIALAQGCQELEYMAVYVSDITNESLESIGTYLKNLCDFRLVLLDREERITDLPLDNGVRSLLIGCKKLRRFAFYLRQGGLTDLGLSYIGQYSPNVRWMLLGYVGESDEGLMEFSRGCPNLQKLEMRGCCFSERAIAAAVTKLPSLRYLWVQGYRASMTGQDLMQMARPYWNIELIPSRRVPEVNQQGEIREMEHPAHILAYYSLAGQRTDCPTTVRVLKEPI [W44A]	decreasing interaction

Variants of: B2
Details: with rbs3b_arath RBCS-3B

Variant	effect of a mutation on the interaction
MEDPDIKRCKLSCVATVDDVIEQVMTYITDPKDRDSASLVCRRAFKIDSETREHVTMALCYTATPDRLSRRFPNLRSLKLKGKPRAAMFNLIPENWGGYVTPWVTEISNNLRQLKSVHFRRMIVSDLDLDRLAKARADDLETLKLDKCSGFTTDGLLSIVTHCRKIKTLLMEESSFSEKDGKWLHELAQHNTSLEVLNFYMTEFAKISPKDLETIARNCRSLVSVKVGDFEILELVGFFKAAANLEEFCGGSLNEDIGMPEKYMNLVFPRKLCRLGLSYMGPNEMPILFPFAAQIRKLDLLYALLETEDHCTLIQKCPNLEVLETRNVIGDRGLEVLAQYCKQLKRLRIERGADEQGMEDEEGLVSQRGLIALAQGCQELEYMAVYVSDITNESLESIGTYLKNLCDFRLVLLDREERITDLPLDNGVRSLLIGCKKLRRFAFYLRQGGLTDLGLSYIGQYSPNVRWMLLGYVGESDEGLMEFSRGCPNLQKLEMRGCCFSERAIAAAVTKLPSLRYLWVQGYRASMTGQDLMQMARPYWNIELIPSRRVPEVNQQGEIREMEHPAHILAYYSLAGQRTDCPTTVRVLKEPI [W44A]	decreasing interaction
MEDPDIKRCKLSCVATVDDVIEQVMTYITDPKDRDSASLVCRRWFKIDSETREHVTMALCYTATPDRLSRRFPNLRSLKLKGKPRAAMFNLIPENWGGYVTPWVTEISNNLRQLKSVHFRRMIVSDLDLDRLAKARADDLETLKLDKCSGFTTDGLLSIVTHCRKIKTLLMEESSFSEKDGKWLHELAQHNTSLEVLNFYMTEFAKISPKDLETIARNCRSLVSVKVGDFEILELVGFFKAAANFEEFCGGSLNEDIGMPEKYMNLVFPRKLCRLGLSYMGPNEMPILFPFAAQIRKLDLLYALLETEDHCTLIQKCPNLEVLETRNVIGDRGLEVLAQYCKQLKRLRIERGADEQGMEDEEGLVSQRGLIALAQGCQELEYMAVYVSDITNESLESIGTYLKNLCDFRLVLLDREERITDLPLDNGVRSLLIGCKKLRRFAFYLRQGGLTDLGLSYIGQYSPNVRWMLLGYVGESDEGLMEFSRGCPNLQKLEMRGCCFSERAIAAAVTKLPSLRYLWVQGYRASMTGQDLMQMARPYWNIELIPSRRVPEVNQQGEIREMEHPAHILAYYSLAGQRTDCPTTVRVLKEPI [L245F]	decreasing interaction

Reference: IntAct's records for PubMed 12445118
